B1: AP-1 complex subunit mu-1 (Mus musculus), P35585 (parent)
chain: MSASAVYVLDLKGKVLICRNYRGDVDMSEVEHFMPILMEKEEEGMLSPILAHGGVRFMWIKHNNLYLVATSKKNACVSLVFSFLYKVVQVFSEYFKELEEESIRDNFVIIYELLDELMDFGYPQTTDSKILQEYITQEGHKLETGAPRPPATVTNAVSWRSEGIKYRKNEVFLDVIEAVNLLVSANGNVLRSEIVGSIKMRVFLSGMPELRLGLNDKVLFDNTGRGKSKSVELEDVKFHQCVRLSRFENDRTISFIPPDGEFELMSYRLNTHVKPLIWIESVIEKHSHSRIEYMVKAKSQFKRRSTANNVEIHIPVPNDADSPKFKTTVGSVKWVPENSEIVWSVKSFPGGKEYLMRAHFGLPSVEAEDKEGKPPISVKFEIPYFTTSGIQVRYLKIIEKSGYQALPWVRYITQNGDYQLRTQ
B2: Bone marrow stromal antigen 2 (Homo sapiens), Q10589 (parent)
chain: MASTSYDYCRVPMEDGDKRCKLLLGIGILVLLIIVILGVPLIIFTIKANSEACRDGLRAVMECRNVTHLLQQELTEAQKGFQDVEAQAATCNHTVMALMASLDAEKAQGQKKVEELEGEITTLNHKLQDASAEVERLRRENQVLSVRIADKKYYPSSQDSSSAAAPQLLIVLLGLSALLQ
partner: B1 chain
B3: Protein Vpu (Human immunodeficiency virus type 1 group M subtype B (isolate SF162)), P19554 (parent)
chain: MQPLQILAIVALVVAAIIAIVVWTIVYIEYRKILRQRKIDRLIDRITERAEDSGNESEGDQEELSALVERGHLAPWDVDDL

Variants of B1 are the subject of one assay. The conditions noted are these: with bst2_human BST2, Q10589.
As for MSASAVYVLDLKGKVLICRNYRGDVDMSEVEHFMPILMEKEEEGMLSPILAHGGVRFMWIKHNNLYLVATSKKNACVSLVFSFLYKVVQVFSEYFKELEEESIRDNFVIIYELLDELMDFGYPQTTDSKILQEYITQEGHKLETGAPRPPATVTNAVSWRSEGIKYRKNEVFLAVIEAVNLLVSANGNVLRSEIVGSIKMRVFLSGMPELRLGLNDKVLFDNTGRGKSKSVELEDVKFHQCVRLSRFENDRTISFIPPDGEFELMSYRLNTHVKPLIWIESVIEKHSHSRIEYMVKAKSQFKRRSTANNVEIHIPVPNDADSPKFKTTVGSVKWVPENSEIVWSVKSFPGGKEYLMRAHFGLPSVEAEDKEGKPPISVKFEIPYFTTSGIQVRYLKIIEKSGYQALPWVRYITQNGDYQLRTQ [D174A], the “effect of a mutation on the interaction” value is listed as “disrupting interaction”.

A further assay covers variants of B1. The conditions noted are these: with tgon3_rat Ttgn1, P19814.
tgon3_rat Ttgn1, P19814, sequence (P19814 whole entry): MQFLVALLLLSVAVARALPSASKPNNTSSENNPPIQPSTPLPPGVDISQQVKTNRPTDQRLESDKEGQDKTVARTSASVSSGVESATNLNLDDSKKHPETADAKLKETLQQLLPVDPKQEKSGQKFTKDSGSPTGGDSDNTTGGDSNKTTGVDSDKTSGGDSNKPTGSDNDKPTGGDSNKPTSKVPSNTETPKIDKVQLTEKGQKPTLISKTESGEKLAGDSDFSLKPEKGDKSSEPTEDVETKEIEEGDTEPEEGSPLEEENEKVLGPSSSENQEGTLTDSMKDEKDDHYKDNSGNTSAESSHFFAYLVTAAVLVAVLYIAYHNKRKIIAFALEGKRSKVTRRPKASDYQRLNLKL
Consider MSASAVYVLDLKGKVLICRNYRGDVDMSEVEHFMPILMEKEEEGMLSPILAHGGVRFMWIKHNNLYLVATSKKNACVSLVFSFLYKVVQVFSEYFKELEEESIRDNFVIIYELLDELMDFGYPQTTDSKILQEYITQEGHKLETGAPRPPATVTNAVSWRSEGIKYRKNEVFLAVIEAVNLLVSANGNVLRSEIVGSIKMRVFLSGMPELRLGLNDKVLFDNTGRGKSKSVELEDVKFHQCVRLSRFENDRTISFIPPDGEFELMSYRLNTHVKPLIWIESVIEKHSHSRIEYMVKAKSQFKRRSTANNVEIHIPVPNDADSPKFKTTVGSVKWVPENSEIVWSVKSFPGGKEYLMRAHFGLPSVEAEDKEGKPPISVKFEIPYFTTSGIQVRYLKIIEKSGYQALPWVRYITQNGDYQLRTQ [D174A], for which the “effect of a mutation on the interaction” value is recorded as “disrupting interaction”.

The variants in the next assay derive from B2. The conditions noted are these: with ap1m1_mouse Ap1m1, P35585.
For MASTSADYCRVPMEDGDKRCKLLLGIGILVLLIIVILGVPLIIFTIKANSEACRDGLRAVMECRNVTHLLQQELTEAQKGFQDVEAQAATCNHTVMALMASLDAEKAQGQKKVEELEGEITTLNHKLQDASAEVERLRRENQVLSVRIADKKYYPSSQDSSSAAAPQLLIVLLGLSALLQ, the “effect of a mutation on the interaction” value was “disrupting interaction”.

As to MASTSYDYCRAPMEDGDKRCKLLLGIGILVLLIIVILGVPLIIFTIKANSEACRDGLRAVMECRNVTHLLQQELTEAQKGFQDVEAQAATCNHTVMALMASLDAEKAQGQKKVEELEGEITTLNHKLQDASAEVERLRRENQVLSVRIADKKYYPSSQDSSSAAAPQLLIVLLGLSALLQ, the “effect of a mutation on the interaction” value is given as “disrupting interaction”.

MASTSYDACRVPMEDGDKRCKLLLGIGILVLLIIVILGVPLIIFTIKANSEACRDGLRAVMECRNVTHLLQQELTEAQKGFQDVEAQAATCNHTVMALMASLDAEKAQGQKKVEELEGEITTLNHKLQDASAEVERLRRENQVLSVRIADKKYYPSSQDSSSAAAPQLLIVLLGLSALLQ: the “effect of a mutation on the interaction” value is “disrupting interaction”.

For the variant MASTSADACRVPMEDGDKRCKLLLGIGILVLLIIVILGVPLIIFTIKANSEACRDGLRAVMECRNVTHLLQQELTEAQKGFQDVEAQAATCNHTVMALMASLDAEKAQGQKKVEELEGEITTLNHKLQDASAEVERLRRENQVLSVRIADKKYYPSSQDSSSAAAPQLLIVLLGLSALLQ, the “effect of a mutation on the interaction” value is given as “disrupting interaction”.

In a further assay the parent is B3. The conditions noted are these: with fbw1a_human BTRC.
Take S53N;S57N: the “effect of a mutation on the interaction” value was “decreasing interaction”.

(Values after IntAct's records for PubMed 24843023.)
